Among the data in publication PMC5980995, “An allostatic mechanism for M2 pyruvate kinase as an amino-acid sensor” (Biochemical Journal, 2018) are Kd values, retold here.

The assay has as its target M2 isoenzyme of pyruvate kinase (M2PYK), human, N-terminal His6 tag (human) (UniProt P14618). Description: SEC; analytical gel chromatography, Superdex 200 PC 3.2/30, 0.1 ml/min; protein diluted from 20 mg/ml to 0.1 mg/ml and incubated up to 12 h (overnight) at room temperature in PBS-CM pH 7.4, without or with 10 mM serine, phenylalanine, alanine or tryptophan; apparent constant, tetramer to monomers.

M2 isoenzyme of pyruvate kinase (M2PYK), human, N-terminal His6 tag, P14618 1-531 (enzyme; other documents disagree on this pair), sequence (P14618 whole entry): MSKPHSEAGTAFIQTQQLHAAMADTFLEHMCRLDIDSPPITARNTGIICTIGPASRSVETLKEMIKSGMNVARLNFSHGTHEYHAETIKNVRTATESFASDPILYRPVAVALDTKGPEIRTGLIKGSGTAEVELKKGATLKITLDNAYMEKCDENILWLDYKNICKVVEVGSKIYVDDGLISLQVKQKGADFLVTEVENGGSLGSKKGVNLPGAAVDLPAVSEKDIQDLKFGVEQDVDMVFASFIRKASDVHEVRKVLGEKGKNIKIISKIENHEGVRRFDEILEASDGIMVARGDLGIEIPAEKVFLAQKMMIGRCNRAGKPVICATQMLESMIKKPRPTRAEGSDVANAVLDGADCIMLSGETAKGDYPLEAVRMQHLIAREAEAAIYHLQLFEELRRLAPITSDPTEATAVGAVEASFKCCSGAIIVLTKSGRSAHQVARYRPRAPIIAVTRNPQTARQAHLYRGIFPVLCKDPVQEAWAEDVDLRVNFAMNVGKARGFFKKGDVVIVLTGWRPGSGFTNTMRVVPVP

In the case of “M2 isoenzyme of pyruvate kinase (M2PYK), human, N-terminal His6 tag, P14618 1-531 (enzyme; other documents disagree on this pair)”, the Kd amounted to 900 nM.
